# From US20230272011A1 (AVACTA LIFE SCIENCES, published 2023)
# Tests used:
# cynomolgus serum albumin [1] = biological target: T1, cynomolgus serum albumin (cynomolgus); experiment: binding ELISA, coated albumin, pH 7.4
# T1 construct: also called CSA; cyno serum albumin
# rabbit serum albumin = rabbit serum albumin (rabbit, UniProt P49065 25-608); experiment: binding ELISA, coated albumin, pH 7.4
# equine serum albumin = equine serum albumin (equine, UniProt P35747 25-607); experiment: binding ELISA, coated albumin, pH 7.4
# canine serum albumin = canine serum albumin (canine, UniProt P49822 25-608); experiment: binding ELISA, coated albumin, pH 7.4
# porcine serum albumin = porcine serum albumin (porcine, UniProt P08835 25-607); experiment: binding ELISA, coated albumin, pH 7.4
# rat serum albumin = rat serum albumin (rat, UniProt P02770 25-608); experiment: binding ELISA, coated albumin, pH 7.4
# human serum albumin [2] = biological target: T2, human serum albumin (human, UniProt P02768 25-609); experiment: binding ELISA, coated albumin, pH 7.4
# T2 construct: mature; Bought protein; biotinylated in the Octet and HTRF assays; also called HSA; HuSA
# mouse serum albumin [3] = biological target: T3, mouse serum albumin (mouse, UniProt P07724 25-608); experiment: binding ELISA, coated albumin, pH 7.4
# T3 construct: also called MSA
# cynomolgus serum albumin [4] = biological target: T1, cynomolgus serum albumin; experiment: Octet biolayer interferometry, pH 7.4
# Procedure: (§1) Biotinylated antigen was captured onto SA sensors at 1 μg/ml for 600 seconds in a buffer comprising PBS-T (0.01% Tween 20)+1% casein at either pH 6.0 or 7.4. Association was carried out for 300 seconds and dissociation for 600 seconds, and regeneration was performed using 10 mM glycine pH 1.5 (GE Healthcare) for 3×5 seconds. All steps were carried out at 1000 rpm and 25° C. Purified AFFIMER® polypeptide in two-fold serial dilutions was analyzed at a starting concentration of approximately 10× K_{D value}. Kinetics analyses were carried out using the Octet data analysis software, subtracting the reference sensor (loaded with antigen), aligning the Y-axis to baseline, and using inter-step correction to align association to dissociation. Savitzky-Golay filtering was applied and the data processed. Analysis of the data was carried out with a 1:1 model, global fit, Rₘₐₓ unlinked by sensor.
# (§2) AFFIMER® polypeptides were incubated with AcTEV for 1 hour at 30° C. as recommend by the manufacturer (Invitrogen) and removal of cleaved His tag by binding NiNTA resin (Generon) and collecting the cleaved protein flow through. […] Pharmacokinetic profile of IV-injected His tag cleaved AFFIMER® protein compared to C-terminally His-tagged AFFIMER® protein was evaluated.
# human serum albumin [5] = biological target: T2, human serum albumin; experiment: Octet biolayer interferometry, pH 7.4
# Procedure: as §1, §2
# mouse serum albumin [6] = biological target: T3, mouse serum albumin; experiment: Octet biolayer interferometry, pH 7.4
# Procedure: as §1, §2
# cynomolgus serum albumin [7] = biological target: T1, cynomolgus serum albumin; experiment: Octet biolayer interferometry, pH 6.0
# Procedure: as §1, §2
# human serum albumin [8] = biological target: T2, human serum albumin; experiment: Octet biolayer interferometry, pH 6.0
# Procedure: as §1, §2
# mouse serum albumin [9] = biological target: T3, mouse serum albumin; experiment: Octet biolayer interferometry, pH 6.0
# Procedure: as §1, §2
# human serum albumin [10] = biological target: T2, human serum albumin; experiment: SPR (Biacore), immobilised HSA, Affimer analyte
# human serum albumin [11] = biological target: T2, human serum albumin; experiment: SPR (Biacore), immobilised HSA, Affimer analyte; remark: listed apart in the source
# Procedure: Affinities for mouse, human, and cynomolgus serum were also measured at pH 7.4 for four (4) AFFIMER® binders using surface plasmon resonance (SPR) (FIG. 5, Table 5). […] A concentration titration of AFFIMER® monomers was run as analyte at a flow rate of 30 μl/min or 60 μl/min. Fc2-1, Fc3-1 and Fc4-1 kinetic data was blank subtracted and fit to a 1:1 Langmuir binding model (BIAcore Evalution software; GE) to calculate KD values. […]
# human serum albumin [12] = biological target: T2, human serum albumin; experiment: binding ELISA on coated albumin, pH 6.0, panel 'HSA Binding at pH 6.0'
# mouse serum albumin [13] = biological target: T3, mouse serum albumin; experiment: binding ELISA on coated albumin, pH 6.0, panel 'MSA Binding at pH 6.0'
# Procedure: Briefly, ELISA was performed as follow:
# Human (Sigma-Aldrich); Cynomolgus and Mouse (Abcam); Equine (Abcam); Canine (Abcam); Mouse (Sigma-Aldrich); Rabbit (Sigma-Aldrich); Porcine (Sigma-Aldrich);, and Rat (Sigma-Aldrich) serum albumin were coated overnight on 96 well plates (Corning Costar) at 1 μg/ml in PBS at the appropriate pH (pH 6.0 or 7.4). Plates were saturated using 5% Casein (Sigma-Aldrich) buffer in PBS. […] Plates were then washed and AFFIMER® proteins were detected using a biotinylated polyclonal antibody anti-Cystatin (R&D System) for 90 minutes. After washing, streptavidin-HRP (Thermo Fisher Scientific) was added and incubated for 30 minutes.
# cynomolgus serum albumin [14] = biological target: T1, cynomolgus serum albumin; experiment: Octet biolayer interferometry, biotinylated albumin on SA sensors, pH 6.0
# Procedure: as §1
# human serum albumin [15] = biological target: T2, human serum albumin; experiment: as above
# Procedure: as §1
# cynomolgus serum albumin [16] = biological target: T1, cynomolgus serum albumin; experiment: Octet biolayer interferometry, biotinylated albumin on SA sensors, pH 7.4
# Procedure: as §1
# human serum albumin [17] = biological target: T2, human serum albumin; experiment: as above
# Procedure: as §1
# mouse serum albumin [18] = biological target: T3, mouse serum albumin; experiment: as above
# Procedure: as §1
# T3 sequence (P07724 25-608 limits assumed): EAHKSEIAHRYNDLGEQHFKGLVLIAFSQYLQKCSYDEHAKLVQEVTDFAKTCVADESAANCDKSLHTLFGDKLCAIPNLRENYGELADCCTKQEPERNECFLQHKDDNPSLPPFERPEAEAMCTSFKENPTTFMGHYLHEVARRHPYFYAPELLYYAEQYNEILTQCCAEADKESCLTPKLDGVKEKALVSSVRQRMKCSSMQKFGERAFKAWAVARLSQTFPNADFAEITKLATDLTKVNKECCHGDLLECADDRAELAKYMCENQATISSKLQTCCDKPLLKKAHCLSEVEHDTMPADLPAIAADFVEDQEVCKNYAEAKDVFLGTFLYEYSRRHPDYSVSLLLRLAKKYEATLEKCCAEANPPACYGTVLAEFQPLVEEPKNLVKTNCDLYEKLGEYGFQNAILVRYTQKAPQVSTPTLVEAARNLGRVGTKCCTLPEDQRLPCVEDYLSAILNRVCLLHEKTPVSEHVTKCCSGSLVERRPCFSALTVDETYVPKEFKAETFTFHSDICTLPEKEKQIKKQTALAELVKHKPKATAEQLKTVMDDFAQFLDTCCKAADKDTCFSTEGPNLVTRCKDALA
# T1 sequence (A2V9Z4 25-608): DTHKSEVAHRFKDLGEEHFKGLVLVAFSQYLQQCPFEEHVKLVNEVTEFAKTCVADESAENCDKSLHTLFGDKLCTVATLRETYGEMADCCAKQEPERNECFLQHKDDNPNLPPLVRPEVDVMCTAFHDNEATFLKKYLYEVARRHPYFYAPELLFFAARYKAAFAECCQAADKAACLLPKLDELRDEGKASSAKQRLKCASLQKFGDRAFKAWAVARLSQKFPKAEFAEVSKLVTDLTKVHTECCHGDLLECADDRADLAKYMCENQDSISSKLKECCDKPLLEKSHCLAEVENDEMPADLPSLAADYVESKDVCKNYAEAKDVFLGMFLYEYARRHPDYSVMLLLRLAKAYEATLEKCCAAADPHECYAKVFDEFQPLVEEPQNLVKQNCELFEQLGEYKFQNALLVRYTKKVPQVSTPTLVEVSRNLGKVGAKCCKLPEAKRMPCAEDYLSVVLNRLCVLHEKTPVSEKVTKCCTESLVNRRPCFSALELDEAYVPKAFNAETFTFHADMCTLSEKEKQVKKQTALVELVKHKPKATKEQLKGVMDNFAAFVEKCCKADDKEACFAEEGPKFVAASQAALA
# Sequence of porcine serum albumin (P08835 25-607 limits assumed): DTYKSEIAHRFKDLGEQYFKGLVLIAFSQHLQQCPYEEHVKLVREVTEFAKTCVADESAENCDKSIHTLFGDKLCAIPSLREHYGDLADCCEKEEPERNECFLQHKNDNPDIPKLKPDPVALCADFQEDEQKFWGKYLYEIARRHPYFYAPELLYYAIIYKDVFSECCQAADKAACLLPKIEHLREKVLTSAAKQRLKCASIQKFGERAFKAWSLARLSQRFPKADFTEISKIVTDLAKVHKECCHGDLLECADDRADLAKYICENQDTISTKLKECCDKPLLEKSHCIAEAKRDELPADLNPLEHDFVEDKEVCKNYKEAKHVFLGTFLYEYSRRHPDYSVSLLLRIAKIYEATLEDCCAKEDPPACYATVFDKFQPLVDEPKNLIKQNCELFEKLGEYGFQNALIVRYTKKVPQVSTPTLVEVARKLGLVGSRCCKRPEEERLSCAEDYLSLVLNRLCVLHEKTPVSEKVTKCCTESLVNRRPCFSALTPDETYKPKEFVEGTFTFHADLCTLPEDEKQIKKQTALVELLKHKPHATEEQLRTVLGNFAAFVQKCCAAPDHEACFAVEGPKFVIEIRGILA
# Sequence of equine serum albumin (P35747 25-607 limits assumed): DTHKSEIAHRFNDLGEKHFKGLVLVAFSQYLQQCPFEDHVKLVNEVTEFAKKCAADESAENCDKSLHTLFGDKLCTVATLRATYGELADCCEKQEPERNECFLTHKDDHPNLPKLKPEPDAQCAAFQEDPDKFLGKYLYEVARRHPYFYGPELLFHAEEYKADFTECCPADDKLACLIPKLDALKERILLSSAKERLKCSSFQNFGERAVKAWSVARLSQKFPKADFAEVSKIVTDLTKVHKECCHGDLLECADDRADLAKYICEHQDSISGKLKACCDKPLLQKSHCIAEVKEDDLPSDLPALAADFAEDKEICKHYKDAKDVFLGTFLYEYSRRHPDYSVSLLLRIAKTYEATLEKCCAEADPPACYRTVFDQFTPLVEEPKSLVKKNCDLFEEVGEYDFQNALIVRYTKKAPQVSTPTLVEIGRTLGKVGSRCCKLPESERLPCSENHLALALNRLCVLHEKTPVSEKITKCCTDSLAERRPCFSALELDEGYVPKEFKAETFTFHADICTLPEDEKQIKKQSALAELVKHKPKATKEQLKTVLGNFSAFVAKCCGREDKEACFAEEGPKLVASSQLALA
# Sequence of rat serum albumin (P02770 25-608 limits assumed): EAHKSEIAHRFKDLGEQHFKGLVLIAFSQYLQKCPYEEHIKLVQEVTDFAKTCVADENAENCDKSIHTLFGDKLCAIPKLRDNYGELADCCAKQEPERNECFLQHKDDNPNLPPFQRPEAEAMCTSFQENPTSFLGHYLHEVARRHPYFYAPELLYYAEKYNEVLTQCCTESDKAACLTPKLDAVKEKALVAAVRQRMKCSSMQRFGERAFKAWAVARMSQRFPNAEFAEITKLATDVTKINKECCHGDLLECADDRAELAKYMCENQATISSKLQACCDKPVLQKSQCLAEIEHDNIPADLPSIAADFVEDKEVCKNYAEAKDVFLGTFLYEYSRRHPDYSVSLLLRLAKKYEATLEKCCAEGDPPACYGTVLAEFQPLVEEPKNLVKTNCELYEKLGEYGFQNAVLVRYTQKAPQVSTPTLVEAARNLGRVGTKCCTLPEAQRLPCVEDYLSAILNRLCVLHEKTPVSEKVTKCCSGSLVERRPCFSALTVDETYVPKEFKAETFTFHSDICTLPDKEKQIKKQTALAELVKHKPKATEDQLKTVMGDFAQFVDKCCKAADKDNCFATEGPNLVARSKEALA
# Sequence of canine serum albumin (P49822 25-608 limits assumed): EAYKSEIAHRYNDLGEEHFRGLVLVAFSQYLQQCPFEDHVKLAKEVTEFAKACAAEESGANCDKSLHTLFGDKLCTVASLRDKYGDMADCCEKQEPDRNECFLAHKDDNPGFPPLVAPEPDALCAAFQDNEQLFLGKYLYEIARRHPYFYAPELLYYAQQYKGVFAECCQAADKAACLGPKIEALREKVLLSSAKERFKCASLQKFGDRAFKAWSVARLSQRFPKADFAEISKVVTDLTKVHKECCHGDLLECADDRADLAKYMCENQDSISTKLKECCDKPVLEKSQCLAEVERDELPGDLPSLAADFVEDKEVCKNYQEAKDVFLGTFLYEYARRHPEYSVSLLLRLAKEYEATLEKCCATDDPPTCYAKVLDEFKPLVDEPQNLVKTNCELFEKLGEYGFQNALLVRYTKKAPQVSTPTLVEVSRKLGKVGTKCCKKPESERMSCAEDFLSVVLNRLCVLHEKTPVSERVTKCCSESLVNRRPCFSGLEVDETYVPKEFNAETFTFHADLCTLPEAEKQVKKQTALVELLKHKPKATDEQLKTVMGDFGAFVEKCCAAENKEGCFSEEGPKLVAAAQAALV
# Sequence of rabbit serum albumin (P49065 25-608 limits assumed): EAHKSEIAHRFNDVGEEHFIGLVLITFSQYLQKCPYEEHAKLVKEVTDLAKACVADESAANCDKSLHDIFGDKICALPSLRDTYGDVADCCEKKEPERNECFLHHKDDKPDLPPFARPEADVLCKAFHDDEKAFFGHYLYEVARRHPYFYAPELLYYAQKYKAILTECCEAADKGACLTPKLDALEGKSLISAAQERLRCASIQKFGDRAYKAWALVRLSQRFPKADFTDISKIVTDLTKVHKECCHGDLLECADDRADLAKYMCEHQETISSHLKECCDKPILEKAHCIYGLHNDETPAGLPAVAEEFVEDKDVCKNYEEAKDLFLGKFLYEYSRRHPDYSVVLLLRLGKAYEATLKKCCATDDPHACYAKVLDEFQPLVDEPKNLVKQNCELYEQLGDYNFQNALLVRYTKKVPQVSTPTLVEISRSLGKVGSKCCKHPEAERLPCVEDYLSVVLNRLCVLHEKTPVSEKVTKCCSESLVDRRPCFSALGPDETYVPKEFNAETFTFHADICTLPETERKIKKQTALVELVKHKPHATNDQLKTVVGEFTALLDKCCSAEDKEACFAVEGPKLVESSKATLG
binder,measurement,setting,value
"HSA-41 (designed binder, also called HSA-41 parent; HSA-41 AH parent) MIPRGLSEAKPATPEIQEIVDKVKPQLEEKTNETYGKLEAVQYKTQVLANFFQRRWPGSTNYYIKVRAGDNKYMHLKVFNGPWKFRNTDRGADRVLTGYQVDKNKDDELTGFHHHHHH",EC50,cynomolgus serum albumin [1],12.8 nM
same,EC50,rabbit serum albumin,381 nM
same,EC50,equine serum albumin,150 nM
same,EC50,canine serum albumin,21.5 nM
same,EC50,porcine serum albumin,51.7 nM
same,EC50,rat serum albumin,4.18 nM
same,EC50,human serum albumin [2],0.05 nM
same,EC50,mouse serum albumin [3],42.5 nM
same,Kd,cynomolgus serum albumin [4],209 nM
same,Kd,human serum albumin [5],7.74 nM
same,Kd,mouse serum albumin [6],82 nM
same,Kd,cynomolgus serum albumin [7],220 nM
same,Kd,human serum albumin [8],11.9 nM
same,Kd,mouse serum albumin [9],50.5 nM
same,Kd,human serum albumin [10],2.4 nM
same,koff,human serum albumin [10],0.00354 s⁻¹
same,kon,human serum albumin [10],1.48e+06 M⁻¹ s⁻¹
same,Kd,human serum albumin [11],5.13 nM
same,koff,human serum albumin [11],0.00435 s⁻¹
same,kon,human serum albumin [11],848000 M⁻¹ s⁻¹
same,EC50 (read off the curve),human serum albumin [12],~0.04 nM
same,EC50 (read off the curve),mouse serum albumin [13],~0.7 nM
same,koff,cynomolgus serum albumin [14],0.00717 s⁻¹
same,kon,cynomolgus serum albumin [14],68100 M⁻¹ s⁻¹
same,koff,human serum albumin [15],0.00198 s⁻¹
same,kon,human serum albumin [15],278000 M⁻¹ s⁻¹
same,koff,cynomolgus serum albumin [16],0.0177 s⁻¹
same,kon,cynomolgus serum albumin [16],248000 M⁻¹ s⁻¹
same,koff,human serum albumin [17],0.00198 s⁻¹
same,kon,human serum albumin [17],379000 M⁻¹ s⁻¹
same,koff,mouse serum albumin [18],0.0318 s⁻¹
same,kon,mouse serum albumin [18],663000 M⁻¹ s⁻¹
